Data reported in paper doi:10.1101/646075 (bioRxiv, 2019).
Where two headings read alike, the source gives them in different places.

How the values were obtained:
[1] = target: apo-transferrin (iron-unbound transferrin) (human) (UniProt P02787)
[2] = target: apo-transferrin (iron-unbound transferrin) (human) (UniProt P02787); assay: SPR
human α-thrombin (human) = human α-thrombin (human) (UniProt P00734)
[3] = target: T1, apo-transferrin (iron-unbound transferrin) (human, UniProt P02787 20-698); assay: SPR
[4] = target: T1, apo-transferrin (iron-unbound …)
[5] = target: T1, apo-transferrin (iron-unbound …); assay: SPR; remark: listed apart in the source
[6] = target: T1, apo-transferrin (iron-unbound …); assay: SPR; remark: listed apart in the source

human α-thrombin (from UniProt P00734) (enzyme)
stoichiometry N (Tf per thrombin) [1]: 1
Kd [2]: 7.7 nM

FXII (natural protein)
Kd [2]: 40 nM
koff [2]: 0.0012 s⁻¹
kon [2]: 30000 M⁻¹ s⁻¹

apo-transferrin (iron-unbound transferrin) (from UniProt P02787 20-698) (natural protein)
enzymatic activity of thrombin on a chromogenic substrate, Tf at 0.2, 1 and 5 μM (human α-thrombin (human)): 1.8 fold

RRNHSCEPCQTLAVRSYR [FX18]
Kd [3]: 143 nM
koff [3]: 0.0004 s⁻¹
kon [3]: 2800 M⁻¹ s⁻¹

RIGKHSRTRYERNIEK [TH16]
Kd [3]: 97 nM
koff [3]: 0.0003 s⁻¹
kon [3]: 3100 M⁻¹ s⁻¹

B1: human α-FXIIa (enzyme)
chain 1: IPPWEAPKEHKYKAEEHTVVLTVTGEPCHFPFQYHRQLYHKCTHKGRPGPQPWCATTPNFDQDQRWGYCLEPKKVKDHCSKHSPCQKGGTCVNMPSGPHCLCPQHLTGNHCQKEKCFEPQLLRFFHKNEIWYRTEQAAVARCQCKGPDAHCQRLASQACRTNPCLHGGRCLEVEGHRLCHCPVGYTGAFCDVDTKASCYDGRGLSYRGLARTTLSGAPCQPWASEATYRNVTAEQARNWGLGGHAFCRNPDNDIRPWCFVLNRDRLSWEYCDLAQCQTPTQAAPPTPVSPRLHVPLMPAQPAPPKPQPTTRTPPQSQTPGALPAKREQPPSLTRNGPLSCGQRLRKSLSSMTR
chain 2: VVGGLVALRGAHPYIAALYWGHSFCAGSLIAPCWVLTAAHCLQDRPAPEDLTVVLGQERRNHSCEPCQTLAVRSYRLHEAFSPVSYQHDLALLRLQEDADGSCALLSPYVQPVCLPSGAARPSETTLCQVAGWGHQFEGAEEYASFLQEAQVPFLSLERCSAPDVHGSSILPGMLCAGFLEGGTDACQGDSGGPLVCEDQAAERRLTLQGIISWGSGCGDRNKPGVYTDVAYYLAWIREHTVS
stoichiometry N [4]: 1 Tf per FXIIa
Kd [5]: 13.9 nM
koff [5]: 0.0025 s⁻¹
kon [5]: 180000 M⁻¹ s⁻¹

B2: fibrinogen (complex)
chain 1: ADSGEGDFLAEGGGVRGPRVVERHQSACKDSDWPFCSDEDWNYKCPSGCRMKGLIDEVNQDFTNRINKLKNSLFEYQKNNKDSHSLTTNIMEILRGDFSSANNRDNTYNRVSEDLRSRIEVLKRKVIEKVQHIQLLQKNVRAQLVDMKRLEVDIDIKIRSCRGSCSRALAREVDLKDYEDQQKQLEQVIAKDLLPSRDRQHLPLIKMKPVPDLVPGNFKSQLQKVPPEWKALTDMPQMRMELERPGGNEITRGGSTSYGTGSETESPRNPSSAGSWNSGSSGPGSTGNRNPGSSGTGGTATWKPGSSGPGSTGSWNSGSSGTGSTGNQNPGSPRPGSTGTWNPGSSERGSAGHWTSESSVSGSTGQWHSESGSFRPDSPGSGNARPNNPDWGTFEEVSGNVSPGTRREYHTEKLVTSKGDKELRTGKEKVTSGSTTTTRRSCSKTVTKTVIGPDGHKEVTKEVVTSEDGSDCPEAMDLGTLSGIGTLDGFRHRHPDEAAFFDTASTGKTFPGFFSPMLGEFVSETESRGSESGIFTNTKESSSHHPGIAEFPSRGKSSSYSKQFTSSTSYNRGDSTFESKSYKMADEAGSEADHEGTHSTKRGHAKSRPVRGIHTSPLGKPSLSP
chain 2: QGVNDNEEGFFSARGHRPLDKKREEAPSLRPAPPPISGGGYRARPAKAAATQKKVERKAPDAGGCLHADPDLGVLCPTGCQLQEALLQQERPIRNSVDELNNNVEAVSQTSSSSFQYMYLLKDLWQKRQKQVKDNENVVNEYSSELEKHQLYIDETVNSNIPTNLRVLRSILENLRSKIQKLESDVSAQMEYCRTPCTVSCNIPVVSGKECEEIIRKGGETSEMYLIQPDSSVKPYRVYCDMNTENGGWTVIQNRQDGSVDFGRKWDPYKQGFGNVATNTDGKNYCGLPGEYWLGNDKISQLTRMGPTELLIEMEDWKGDKVKAHYGGFTVQNEANKYQISVNKYRGTAGNALMDGASQLMGENRTMTIHNGMFFSTYDRDNDGWLTSDPRKQCSKEDGGGWWYNRCHAANPNGRYYWGGQYTWDMAKHGTDDGVVWMNWKGSWYSMRKMSMKIRPFFPQQ
chain 3: YVATRDNCCILDERFGSYCPTTCGIADFLSTYQTKVDKDLQSLEDILHQVENKTSEVKQLIKAIQLTYNPDESSKPNMIDAATLKSRKMLEEIMKYEASILTHDSSIRYLQEIYNSNNQKIVNLKEKVAQLEAQCQEPCKDTVQIHDITGKDCQDIANKGAKQSGLYFIKPLKANQQFLVYCEIDGSGNGWTVFQKRLDGSVDFKKNWIQYKEGFGHLSPTGTTEFWLGNEKIHLISTQSAIPYALRVELEDWNGRTSTADYAMFKVGPEADKYRLTYAYFAGGDAGDAFDGFDFGDDPSDKFFTSHNGMQFSTWDNDNDKFEGNCAEQDGSGWWMNKCHAGHLNGVYYQGGTYSKASTPNGYDNGIIWATWKTRWYSMKKTTMKIIPFNRLTIGEGQQHHLGGAKQAGDV
stoichiometry N [6]: 4 apo-Tf per fibrinogen
